In PMC5303273, “Rab1 interacts with GOLPH3 and controls Golgi structure and contractile ring constriction during cytokinesis in Drosophila melanogaster” (Open Biology, 2017):

Molecular target: T1, 6XHis-GOLPH3 (Drosophila melanogaster, UniProt Q9VQ93 1-294)
T1 construct: Drosophila GOLPH3 made with the pET Directional TOPO Expression kit; also called 6XHis-tagged GOLPH3; recombinant GOLPH3; source: recombinant (pET Directional TOPO Expression kit), purified (cOmplete His-Tag Purification Resin)
T1 sequence (Q9VQ93 whole entry): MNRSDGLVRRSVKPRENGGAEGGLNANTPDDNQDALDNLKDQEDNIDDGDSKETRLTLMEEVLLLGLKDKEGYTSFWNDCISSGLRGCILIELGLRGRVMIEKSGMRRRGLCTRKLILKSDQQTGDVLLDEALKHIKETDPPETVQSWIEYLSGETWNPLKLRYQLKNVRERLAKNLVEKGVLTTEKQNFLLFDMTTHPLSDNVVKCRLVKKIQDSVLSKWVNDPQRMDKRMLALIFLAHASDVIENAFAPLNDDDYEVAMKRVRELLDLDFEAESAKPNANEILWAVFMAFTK
Assay: pull-down; GST-Rab protein on glutathione beads loaded with GMP-PNP (GTP), incubated with recombinant 6XHis-GOLPH3 for 5 h at 4°C; blot with anti-6XHis
Conditions: both partners purified

B1: GST-Rab1 (natural protein)
chain: not shown
notes: full-length cDNA of Drosophila Rab1 cloned into pGEX-6p-2; In the direct pull-down the protein on the beads was loaded with GDP-beta-S or GMP-PNP; also called GST-full-length Drosophila Rab1; source: BL21-CodonPlus (DE3), purified (Glutathione-Sepharose 4B beads)
B1: binds.
